Square brackets hold non-standard residues; d marks the D form. Ends that are not written are not given here.
B1: compound 4 (CJL-5-35-1): Ac-His-DPhe-Arg-Trp-NH2 scaffold with (Pro-Gly)6 added to the C-terminus (peptide)
peptide: Ac-H[dF]RWPGPGPGPGPGPG-NH2
SMILES: CC(=O)N[C@@H](Cc1c[nH]cn1)C(=O)N[C@H](Cc1ccccc1)C(=O)N[C@@H](CCCNC(=N)N)C(=O)N[C@@H](Cc1c[nH]c2ccccc12)C(=O)N1CCC[C@H]1C(=O)NCC(=O)N1CCC[C@H]1C(=O)NCC(=O)N1CCC[C@H]1C(=O)NCC(=O)N1CCC[C@H]1C(=O)NCC(=O)N1CCC[C@H]1C(=O)NCC(=O)N1CCC[C@H]1C(=O)NCC(N)=O
B2: compound 5 (CJL-1-41): His-DPhe-Arg-Trp-NH2 scaffold with (Pro-Gly)6 added to the N-terminus (peptide)
peptide: PGPGPGPGPGPGH[dF]RW-NH2
modifications: N-terminus assumed
SMILES: N=C(N)NCCC[C@H](NC(=O)[C@@H](Cc1ccccc1)NC(=O)[C@H](Cc1c[nH]cn1)NC(=O)CNC(=O)[C@@H]1CCCN1C(=O)CNC(=O)[C@@H]1CCCN1C(=O)CNC(=O)[C@@H]1CCCN1C(=O)CNC(=O)[C@@H]1CCCN1C(=O)CNC(=O)[C@@H]1CCCN1C(=O)CNC(=O)[C@@H]1CCCN1)C(=O)N[C@@H](Cc1c[nH]c2ccccc12)C(N)=O

Experiments:
Assay in all cases: radioligand binding
[1] = target: mouse melanocortin-1 receptor (mouse, UniProt Q01727 1-315)
[2] = target: mouse melanocortin-4 receptor (mouse, UniProt P56450 1-332)
[3] = target: mouse melanocortin-3 receptor, Flag-tagged (mouse, UniProt P33033 1-323)
Sequence of mouse melanocortin-3 receptor, Flag-tagged (P33033 whole entry): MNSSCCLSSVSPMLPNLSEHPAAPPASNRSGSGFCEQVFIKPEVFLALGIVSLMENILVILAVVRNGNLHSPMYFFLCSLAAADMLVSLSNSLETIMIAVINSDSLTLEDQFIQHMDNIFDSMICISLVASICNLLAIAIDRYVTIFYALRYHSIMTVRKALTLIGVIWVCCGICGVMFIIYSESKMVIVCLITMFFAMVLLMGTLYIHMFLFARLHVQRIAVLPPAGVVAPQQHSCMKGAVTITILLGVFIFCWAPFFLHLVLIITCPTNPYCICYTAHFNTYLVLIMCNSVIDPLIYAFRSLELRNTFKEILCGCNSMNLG

Sequence of mouse melanocortin-4 receptor (P56450 whole entry): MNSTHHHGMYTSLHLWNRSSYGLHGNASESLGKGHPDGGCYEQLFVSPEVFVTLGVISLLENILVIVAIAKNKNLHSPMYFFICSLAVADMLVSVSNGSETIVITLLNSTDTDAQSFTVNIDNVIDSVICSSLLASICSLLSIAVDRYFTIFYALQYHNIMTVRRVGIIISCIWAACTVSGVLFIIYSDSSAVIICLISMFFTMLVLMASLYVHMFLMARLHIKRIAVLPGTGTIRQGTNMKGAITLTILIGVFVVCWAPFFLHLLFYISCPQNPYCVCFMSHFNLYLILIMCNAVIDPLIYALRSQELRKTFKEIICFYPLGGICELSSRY
Sequence of mouse melanocortin-1 receptor (Q01727 whole entry): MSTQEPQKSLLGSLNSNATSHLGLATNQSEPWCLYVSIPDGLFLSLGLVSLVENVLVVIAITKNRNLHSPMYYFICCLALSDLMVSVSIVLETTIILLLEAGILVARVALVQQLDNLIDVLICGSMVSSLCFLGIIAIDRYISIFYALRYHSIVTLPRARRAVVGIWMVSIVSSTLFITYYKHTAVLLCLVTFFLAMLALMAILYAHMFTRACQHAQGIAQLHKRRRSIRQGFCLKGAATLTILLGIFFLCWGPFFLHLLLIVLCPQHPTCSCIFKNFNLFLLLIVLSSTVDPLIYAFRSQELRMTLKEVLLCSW

Row | Binder | IC50 [1] [nM] | IC50 [2] [nM] | IC50 [3] [nM]
1 | B1 | 225 | 841 | –
2 | B2 | – | 258 | 8430
3 | H[dF]RWPGPGPGPGPGPGH[dF]RW-NH2 [compound 6 (CJL-1-31): homobivalent ligand, two His-DPhe-Arg-Trp scaffolds joined by (Pro-Gly)6] | 27.5 | 33 | 3250
